Source: patent US7704703B2, “Arf and Hdm2 interaction domains and the methods of use thereof” (St. Jude Children's Research Hospital, Inc., priority 2002, dated 2010)

T1: mArfN37 (Mus musculus, UniProt Q64364)
T1 construct: mouse p19^Arf corresponding to residues 1-37 (mArfN37); made in house; host or cells: E. coli BL21(DE3) (purified 'in a similar manner' to the Hdm2 fragments)
T1 sequence (Q64364 1-37 limits assumed): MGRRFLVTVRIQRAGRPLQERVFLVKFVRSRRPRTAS

T2: GFP-p19^Arf (Mus musculus, UniProt Q64364)
T2 construct: expressed in transfected cells; host or cells: NIH 3T3 Arf-/- cells
T2 sequence (Q64364 1-169): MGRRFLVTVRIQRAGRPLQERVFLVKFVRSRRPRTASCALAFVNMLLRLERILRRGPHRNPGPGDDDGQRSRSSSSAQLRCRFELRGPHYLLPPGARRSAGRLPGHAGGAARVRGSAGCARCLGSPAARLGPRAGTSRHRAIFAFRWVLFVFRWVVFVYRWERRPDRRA

B1: Hdm2 210-275: fragment of Hdm2 corresponding to residues 210-275 of SEQ ID NO:8 (protein, listed as Homo sapiens)
chain: SSSSESTGTPSNPDLDAGVSEHSGDWLDQDSVSDQFSVEFEVESLDSEDYSLSEEGQELSDEDDEV
B2: Hdm2 277-350: Texas Red labeled Hdm2 deletion construct containing residues 277-350 (protein)
chain: QVTVYQAGESDTDSFEEDPEISLADYWKCTSCNEMNPPLPSHCNRCWALRENWLPEDKGKDKGEISEKAKLENS

Tests used:
[1] = target: T1, mArfN37; test: Surface plasmon resonance: Hdm2 fragments and peptides binding to immobilized His-tagged mArfN37; conditions: Hdm2 protein fragments as analyte; no binding to control surface
Experimental: Surface Plasmon Resonance. Binding studies were performed using a Biacore 3000 surface plasmon resonance (SPR) instrument (Biacore, Inc.). A Tetra-His™ Antibody (Qiagen, Inc.; Cat. #34670) was covalently attached to a carboxymethylated gold surface (C-1 chip; Biacore, Inc.). The carboxymethyl groups on the surface were activated with N-ethyl-N′-(3-dimethylaminopropyl) carbodiimide (EDC) and N-hydroxysuccinimide (NHS) and the antibody was attached at pH 7.4 in 20 mM sodium phosphate buffer, 150 mM NaCl (PBS). Reactive sites remaining on the surface were blocked by reaction with ethanolamine. […] Binding was measured by flowing the non-His-tagged analyte through the reference and ligand-containing flow cells in sequence. […] Changes in the SPR response due to solvent differences and the injection process were monitored by injection of HBS-N buffer alone. […]
Small segments of Arf and Hdm2 participate in Arf/Hdm2 interactions. […] However, because mArfN37 is a relatively small polypeptide, it was determined whether it could bind a correspondingly small segment of Hdm2. To test this hypothesis and to monitor Arf/Hdm2 binding reactions quantitatively, Hdm2 constructs were prepared spanning amino acids 210-304 of SEQ ID NO:8 and 210-275 of SEQ ID NO:8 and then it was determined whether they could bind mArfN37 using surface plasmon resonance (SPR). […]

[2] = target: T2, GFP-p19^Arf; test: Microinjection and live cell imaging of Texas Red labeled Hdm2 constructs in NIH 3T3 cells lacking Arf; assay type: cell-based; conditions: transfected with GFP-p19^Arf
Experimental: Fluorescent labeling. Proteins for fluorescence microimaging studies were covalently modified using an amine-reactive, sulfosuccinimidyl ester of TEXAS RED® (C31H29S2N2O6Cl1) (Molecular Probes, Inc., Cat. # C-1171). In brief, purified Hdm2-derived proteins were dialyzed into 100 mM sodium bicarbonate buffer, pH 8.3 at 2-4 mg/ml. The Texas Red™ dye was dissolved in dimethylsulfoxide at 10 mg/ml. Protein and dye 3:1 (vol:vol) were reacted for 1 hour at room temperature followed by purification using size-exclusion chromatography (NAP 5 G-25 columns, Amersham Pharmacia Biotech, Inc.). […]
Cell culture and microinjection. […] GFP-Arf positive cells were then located and co-injected with TEXAS RED® (C31H29S2N2O6C1 labeled Hdm2 polypeptides (2 mg/ml in 20 mM Tris-HCl, 100 mM NaCl, pH 7.0) using a Micromanipulator 5171/Transjector 5246 (Eppendorf, AG) in media supplemented with 10 mM HEPES, pH 7.2 to buffer cell media during injection and imaging. Representative cells were imaged over time. An Axiovert 135 TV inverted fluorescence microscope with an automated stage controller (Carl Zeiss, Inc.) and circulating water bath heater (Fisher) was used for both microinjection and imaging. Images were acquired with a Zeiss 40×NA=1.30 oil objective and MicroMax CCD camera (Princeton Instruments Inc.) operated with MetaMorph Version 4.01 imaging software. […]

Molecule	binding of Hdm2 fragment to His-tagged mArfN37 immobilized on SPR biosensor surface [1]	localization after nuclear microinjection in the presence of GFP-p19^Arf [2]
B1	bind tightly	nucleolar localization
B2	–	localized in the nucleoplasm rather than in nucleoli
